Results reported in US6071715, “Nucleic acids encoding novel proteins which bind to retinoblastoma protein” (Board of Regents, The University of Texas System, dated 2000).

Target: p56Rb, carboxyl terminus of the Rb protein (Homo sapiens (Human), UniProt P06400)
Assay: native polyacrylamide gel of the purified proteins, silver stain

binding result: binds
B1: chimeric p48 protein containing a modified C-terminus, encoded by plasmid pET-48NB (other)
chain: MADKEAAFDDAVEERVINEEYKIWKKNTPFLYDLVMTHALEWPSLTAQWLPDVTRPEGKDFSIHRLVLGTHTSDEQNHLVIASVQLPNDDAQFDASHYDSEKGEFGGFGSVSGKIEIEIKINHEGEVNRARYMPQNPCIIATKTPSSDVLVFDYTKHPSKPDPSGECNPDLRLRGHQKEGYGLSWNPNLSGHLLSASDDHTICLWDISAVPKEGKVVDAKTIFTGHTAVVEDVSWHLLHESLFGSVADDQKLMIWDTRSNNTSKPSHSVDAHTAEVNCLSFNPYSEFILATGSADKTVALWDLRNLKLKLHSFESHKDEIFQVQWSPHNETILASSGTDRRLNVWDLSKIGEEQSPEDAEDGPPELLFIHGGHTAKISDFSWNPNEPWVICSVSEDNIMQVWQMAENIYNDEDPEGSVDPAANKARKEAELAAANAEQ
